Test results from FireProtDB.
Values joined by “and” are separate entries in the source; they are usually repeats but may differ in a detail not shown here. Equal entries are not always repeated.

B1: Ribonuclease, P00648 (parent)
chain: MMKMEGIALKKRLSWISVCLLVLVSAAGMLFSTAAKTETSSHKAHTEAQVINTFDGVADYLQTYHKLPDNYITKSEAQALGWVASKGNLADVAPGKSIGGDIFSNREGKLPGKSGRTWREADINYTSGFRNSDRILYSSDWLIYKTTDHYQTFTKIR
B2: Beta-xylanase, O68541 (parent)
chain: MNLSRRQLLALTSAGIAMGQASKLAAATKAAEQTGLKSAYKDNFLIGAALNATIASGADERLNTLIAKEFNSITPENCMKWGVLRDAQGQWNWKDADAFVAFGTKHNLHMVGHTLVWHSQIHDEVFKNADGSYISKAALQKKMEEHITTLAGRYKGKLAAWDVVNEAVGDDLKMRDSHWYKIMGDDFIYNAFTLANEVDPKAHLMYNDYNIERTGKREATVEMIERLQKRGMPIHGLGIQGHLGIDTPPIAEIEKSIIAFAKLGLRVHFTELDVDVLPSVWELPVAEVSTRFEYKPERDPYTKGLPQEMQDKLAKRYEDLFKLFIKHSDKIDRATFWGVSDDASWLNGFPIPGRTNYPLLFDRKLQPKDAYFRLLDLKR
B3: Malate dehydrogenase, P80040 (parent)
chain: MRKKISIIGAGFVGSTTAHWLAAKELGDIVLLDFVEGVPQGKALDLYEASPIEGFDVRVTGTNNYADTANSDVIVVTSGAPRKPGMSREDLIKVNADITRACISQAAPLSPNAVIIMVNNPLDAMTYLAAEVSGFPKERVIGQAGVLDAARYRTFIAMEAGVSVEDVQAMLMGGHGDEMVPLPRFSTISGIPVSEFIAPDRLAQIVERTRKGGGEIVNLLKTGSAYYAPAAATAQMVEAVLKDKKRVMPVAAYLTGQYGLNDIYFGVPVILGAGGVEKILELPLNEEEMALLNASAKAVRATLDTLKSL
B4: Endo-1,4-beta-xylanase 2, P36217 (parent)
chain: MVSFTSLLAGVAAISGVLAAPAAEVESVAVEKRQTIQPGTGYNNGYFYSYWNDGHGGVTYTNGPGGQFSVNWSNSGNFVGGKGWQPGTKNKVINFSGSYNPNGNSYLSVYGWSRNPLIEYYIVENFGTYNPSTGATKLGEVTSDGSVYDIYRTQRVNQPSIIGTATFYQYWSVRRNHRSSGSVNTANHFNAWAQQGLTLGTMDYQIVAVEGYFSSGSASITVS
B5: Copper-transporting ATPase 2, P35670 (parent)
chain: MPEQERQITAREGASRKILSKLSLPTRAWEPAMKKSFAFDNVGYEGGLDGLGPSSQVATSTVRILGMTCQSCVKSIEDRISNLKGIISMKVSLEQGSATVKYVPSVVCLQQVCHQIGDMGFEASIAEGKAASWPSRSLPAQEAVVKLRVEGMTCQSCVSSIEGKVRKLQGVVRVKVSLSNQEAVITYQPYLIQPEDLRDHVNDMGFEAAIKSKVAPLSLGPIDIERLQSTNPKRPLSSANQNFNNSETLGHQGSHVVTLQLRIDGMHCKSCVLNIEENIGQLLGVQSIQVSLENKTAQVKYDPSCTSPVALQRAIEALPPGNFKVSLPDGAEGSGTDHRSSSSHSPGSPPRNQVQGTCSTTLIAIAGMTCASCVHSIEGMISQLEGVQQISVSLAEGTATVLYNPSVISPEELRAAIEDMGFEASVVSESCSTNPLGNHSAGNSMVQTTDGTPTSVQEVAPHTGRLPANHAPDILAKSPQSTRAVAPQKCFLQIKGMTCASCVSNIERNLQKEAGVLSVLVALMAGKAEIKYDPEVIQPLEIAQFIQDLGFEAAVMEDYAGSDGNIELTITGMTCASCVHNIESKLTRTNGITYASVALATSKALVKFDPEIIGPRDIIKIIEEIGFHASLAQRNPNAHHLDHKMEIKQWKKSFLCSLVFGIPVMALMIYMLIPSNEPHQSMVLDHNIIPGLSILNLIFFILCTFVQLLGGWYFYVQAYKSLRHRSANMDVLIVLATSIAYVYSLVILVVAVAEKAERSPVTFFDTPPMLFVFIALGRWLEHLAKSKTSEALAKLMSLQATEATVVTLGEDNLIIREEQVPMELVQRGDIVKVVPGGKFPVDGKVLEGNTMADESLITGEAMPVTKKPGSTVIAGSINAHGSVLIKATHVGNDTTLAQIVKLVEEAQMSKAPIQQLADRFSGYFVPFIIIMSTLTLVVWIVIGFIDFGVVQRYFPNPNKHISQTEVIIRFAFQTSITVLCIACPCSLGLATPTAVMVGTGVAAQNGILIKGGKPLEMAHKIKTVMFDKTGTITHGVPRVMRVLLLGDVATLPLRKVLAVVGTAEASSEHPLGVAVTKYCKEELGTETLGYCTDFQAVPGCGIGCKVSNVEGILAHSERPLSAPASHLNEAGSLPAEKDAVPQTFSVLIGNREWLRRNGLTISSDVSDAMTDHEMKGQTAILVAIDGVLCGMIAIADAVKQEAALAVHTLQSMGVDVVLITGDNRKTARAIATQVGINKVFAEVLPSHKVAKVQELQNKGKKVAMVGDGVNDSPALAQADMGVAIGTGTDVAIEAADVVLIRNDLLDVVASIHLSKRTVRRIRINLVLALIYNLVGIPIAAGVFMPIGIVLQPWMGSAAMAASSVSVVLSSLQLKCYKKPDLERYEAQAHGHMKPLTASQVSVHIGMDDRWRDSPRATPWDQVSYVSQVSLSSLTSDKPSRHSAAADDDGDKWSLLLNGRDEEQYI
B6: T-cell surface antigen CD2, P08921 (parent)
chain: MRCKFLGSFFLLFSLSSKGADCRDSGTVWGALGHGINLNIPNFQMTDDIDEVRWERGSTLVAEFKRKMKPFLKSGAFEILANGDLKIKNLTRDDSGTYNVTVYSTNGTRILNKALDLRILEMVSKPMIYWECSNATLTCEVLEGTDVELKLYQGKEHLRSLRQKTMSYQWTNLRAPFKCKAVNRVSQESEMEVVNCPEKGLPLYLIVGVSAGGLLLVFFGALFIFCICKRKKRNRRRKGEELEIKASRMSTVERGPKPHSTQASAPASQNPVASQAPPPPGHHLQTPGHRPLPPSHRNREHQPKKRPPPSGTQVHQQKGPPLPRPRVQPKPPCGSGDVSLPPPN
B7: NADP-dependent isopropanol dehydrogenase, P25984 (parent)
chain: MKGFAMLGINKLGWIEKERPVAGSYDAIVRPLAVSPCTSDIHTVFEGALGDRKNMILGHEAVGEVVEVGSEVKDFKPGDRVIVPCTTPDWRSLEVQAGFQQHSNGMLAGWKFSNFKDGVFGEYFHVNDADMNLAILPKDMPLENAVMITDMMTTGFHGAELADIQMGSSVVVIGIGAVGLMGIAGAKLRGAGRIIGVGSRPICVEAAKFYGATDILNYKNGHIVDQVMKLTNGKGVDRVIMAGGGSETLSQAVSMVKPGGIISNINYHGSGDALLIPRVEWGCGMAHKTIKGGLCPGGRLRAEMLRDMVVYNRVDLSKLVTHVYHGFDHIEEALLLMKDKPKDLIKAVVIL
B8: Osteomodulin, Q99983 (parent)
chain: MGFLSPIYVIFFFFGVKVHCQYETYQWDEDYDQEPDDDYQTGFPFRQNVDYGVPFHQYTLGCVSECFCPTNFPSSMYCDNRKLKTIPNIPMHIQQLYLQFNEIEAVTANSFINATHLKEINLSHNKIKSQKIDYGVFAKLPNLLQLHLEHNNLEEFPFPLPKSLERLLLGYNEISKLQTNAMDGLVNLTMLDLCYNYLHDSLLKDKIFAKMEKLMQLNLCSNRLESMPPGLPSSLMYLSLENNSISSIPEKYFDKLPKLHTLRMSHNKLQDIPYNIFNLPNIVELSVGHNKLKQAFYIPRNLEHLYLQNNEIEKMNLTVMCPSIDPLHYHHLTYIRVDQNKLKEPISSYIFFCFPHIHTIYYGEQRSTNGQTIQLKTQVFRRFPDDDDESEDHDDPDNAHESPEQEGAEGHFDLHYYENQE

Variants of: B1
Settings: Bacillus amyloliquefaciens; pH 6.3; 25 °C; Urea; Fluorescence; MES 1.00 M; NaCl 613 mM; reversible: yes; structure 1BNI; whole UniProt chain shown

Row | Variant | ddG of mutation (higher = less stable)
1 | Y64A | 2.26 kcal/mol
2 | T63S Y64A | 2.39 kcal/mol
3 | Y60A Y64A | 4.64 kcal/mol

Same assay, conditions: Bacillus amyloliquefaciens; pH 2.7; Thermal; DSC; glycine-HCl 20 mM; reversible: yes; structure 1BNI; whole UniProt chain shown

Row | Variant | Tm
4 | S132C H149C | 47.4 °C

Same assay, conditions: Bacillus amyloliquefaciens; pH 6.3; 25 °C; Urea; Fluorescence; MES 50 mM; reversible: yes; structure 1BNI; whole UniProt chain shown

Row | Variant | ddG of mutation (higher = less stable)
5 | I135A | 4.46 kcal/mol
6 | T53A | 2.23 kcal/mol
7 | Y125F | 1.5 kcal/mol

Same assay, conditions: Bacillus amyloliquefaciens; pH 6.3; 25 °C; Urea; Fluorescence; MES 10 mM; reversible: yes; structure 1BNI; whole UniProt chain shown

Row | Variant | ddG of mutation (higher = less stable) | denaturant m value | denaturant midpoint (higher = more stable) | unfolding free energy
8 | S75E | -0.61 kcal/mol | 1.99 kcal/mol/M | 4.74 M | 9.44 kcal/mol

Variants of: B2
Settings: Cellvibrio mixtus; pH 7.5; Thermal; DSC; MOPS 20 mM; CaCl2 1 mM; reversible: No; structure 1UR1; whole UniProt chain shown

Row | Variant | Tm | change of melting temperature, mutant - wild type (higher = more stable)
9 | A334V | 62.1 °C | 3.5 °C
10 | A334V G348D | 66.6 °C | 8 °C
11 | G348D | 64.6 °C | 6 °C

Variants of: B3
Settings: Chloroflexus aurantiacus (strain ATCC 29366 / DSM 635 / J-10-fl); pH 7.5; Thermal; CD; potassium phosphate 10 mM; reversible: No; structure 1GUY; whole UniProt chain shown

Row | Variant | Tm | change of melting temperature, mutant - wild type (higher = more stable)
12 | T187C | 82.8 °C | 15 °C

Variants of: B4
Settings: Hypocrea jecorina (strain ATCC 56765 / BCRC 32924 / NRRL 11460 / Rut C-30); pH 5; Thermal; DSC; citrate - phosphate buffer 50 mM; structure 1ENX; whole UniProt chain shown

Row | Variant | Tm | change of melting temperature, mutant - wild type (higher = more stable)
13 | T35C T61C K91R | 72.5 °C | 11.1 °C

Variants of: B5
Settings: Homo sapiens; pH 7; 20 °C; Urea; CD; NaH2PO4 50 mM; transition: 2; reversible: No; structure 2ARF; whole UniProt chain shown

Row | Variant | ddG of mutation (higher = less stable) | denaturant midpoint (higher = more stable) | unfolding free energy
14 | H1069Q | 0.96 kcal/mol | 4.7 M and 4 M | 5.74 kcal/mol and 6.21 kcal/mol

Variants of: B6
Settings: Rattus norvegicus; pH 5; 25 °C; Urea; Fluorescence; Sodium acetate 50 mM; reversible: yes; structure 1HNG; whole UniProt chain shown

Row | Variant | ddG of mutation (higher = less stable)
15 | Y98F | -1.49 kcal/mol

Variants of: B7
Settings: Clostridium beijerinckii; pH 6.8; Thermal; CD; Na/K phosphate 50 mM; structure 1KEV; whole UniProt chain shown

Row | Variant | Tm | change of melting temperature, mutant - wild type (higher = more stable)
16 | V224E S254K Q165E M304R | 73.7 °C | 8.6 °C
17 | V224E S254K | 70.5 °C | 5.4 °C
18 | Q165E M304R | 70.4 °C | 5.3 °C
19 | V224E S254K Q165E M304R R238A | 73.6 °C | 8.5 °C

Variants of: B8
Settings: Homo sapiens; pH 7.4; Thermal; DSC; PBS; transition: 2; structure 5YQ5; whole UniProt chain shown

Row | Variant | Tm
20 | E284R E303R | 43.8 °C
